Results reported in patent US8642284.

Target: histone H2B (calf thymus), P62808

B1: recombinant mSir2α mutant H355A (protein)
chain: MADEVALALQAAGSPSAAAAMEAASQPADEPLRKRPRRDGPGLGRSPGEPSAAVAPAAAGCEAASAAAPAALWREAAGAAASAEREAPATAVAGDGDNGSGLRREPRAADDFDDDEGEEEDEAAAAAAAAAIGYRDNLLLTDGLLTNGFHSCESDDDDRTSHASSSDWTPRPRIGPYTFVQQHLMIGTDPRTILKDLLPETIPPPELDDMTLWQIVINILSEPPKRKKRKDINTIEDAVKLLQECKKIIVLTGAGVSVSCGIPDFRSRDGIYARLAVDFPDLPDPQAMFDIEYFRKDPRPFFKFAKEIYPGQFQPSLCHKFIALSDKEGKLLRNYTQNIDTLEQVAGIQRILQCAGSFATASCLICKYKVDCEAVRGDIFNQVVPRCPRCPADEPLAIMKPEIVFFGENLPEQFHRAMKYDKDEVDLLIVIGSSLKVRPVALIPSSIPHEVPQILINREPLPHLHFDVELLGDCDVIINELCHRLGGEYAKLCCNPVKLSEITEKPPRPQKELVHLSELPPTPLHISEDSSSPERTVPQDSSVIATLVDQATNNNVNDLEVSESSCVEEKPQEVQTSRNVENINVENPDFKAVGSSTADKNERTSVAETVRKCWPNRLAKEQISKRLEGNQYLFVPPNRYIFHGAEVYSDSEDDVLSSSSCGSNSDSGTCQSPSLEEPLEDESEIEEFYNGLEDDTERPECAGGSGFGADGGDQEVVNEAIATRQELTDVNYPSDKS
  mono-ADP-ribosylation activity relative to wild type (Phosphorimaging): completely abolished the activity

B2: recombinant mSir2α mutant P285A (protein)
chain: MADEVALALQAAGSPSAAAAMEAASQPADEPLRKRPRRDGPGLGRSPGEPSAAVAPAAAGCEAASAAAPAALWREAAGAAASAEREAPATAVAGDGDNGSGLRREPRAADDFDDDEGEEEDEAAAAAAAAAIGYRDNLLLTDGLLTNGFHSCESDDDDRTSHASSSDWTPRPRIGPYTFVQQHLMIGTDPRTILKDLLPETIPPPELDDMTLWQIVINILSEPPKRKKRKDINTIEDAVKLLQECKKIIVLTGAGVSVSCGIPDFRSRDGIYARLAVDFPDLPDAQAMFDIEYFRKDPRPFFKFAKEIYPGQFQPSLCHKFIALSDKEGKLLRNYTQNIDTLEQVAGIQRILQCHGSFATASCLICKYKVDCEAVRGDIFNQVVPRCPRCPADEPLAIMKPEIVFFGENLPEQFHRAMKYDKDEVDLLIVIGSSLKVRPVALIPSSIPHEVPQILINREPLPHLHFDVELLGDCDVIINELCHRLGGEYAKLCCNPVKLSEITEKPPRPQKELVHLSELPPTPLHISEDSSSPERTVPQDSSVIATLVDQATNNNVNDLEVSESSCVEEKPQEVQTSRNVENINVENPDFKAVGSSTADKNERTSVAETVRKCWPNRLAKEQISKRLEGNQYLFVPPNRYIFHGAEVYSDSEDDVLSSSSCGSNSDSGTCQSPSLEEPLEDESEIEEFYNGLEDDTERPECAGGSGFGADGGDQEVVNEAIATRQELTDVNYPSDKS
  mono-ADP-ribosylation activity relative to wild type (Phosphorimaging): 5% for P285A

B3: recombinant mSir2α mutant R266A (protein)
chain: MADEVALALQAAGSPSAAAAMEAASQPADEPLRKRPRRDGPGLGRSPGEPSAAVAPAAAGCEAASAAAPAALWREAAGAAASAEREAPATAVAGDGDNGSGLRREPRAADDFDDDEGEEEDEAAAAAAAAAIGYRDNLLLTDGLLTNGFHSCESDDDDRTSHASSSDWTPRPRIGPYTFVQQHLMIGTDPRTILKDLLPETIPPPELDDMTLWQIVINILSEPPKRKKRKDINTIEDAVKLLQECKKIIVLTGAGVSVSCGIPDFASRDGIYARLAVDFPDLPDPQAMFDIEYFRKDPRPFFKFAKEIYPGQFQPSLCHKFIALSDKEGKLLRNYTQNIDTLEQVAGIQRILQCHGSFATASCLICKYKVDCEAVRGDIFNQVVPRCPRCPADEPLAIMKPEIVFFGENLPEQFHRAMKYDKDEVDLLIVIGSSLKVRPVALIPSSIPHEVPQILINREPLPHLHFDVELLGDCDVIINELCHRLGGEYAKLCCNPVKLSEITEKPPRPQKELVHLSELPPTPLHISEDSSSPERTVPQDSSVIATLVDQATNNNVNDLEVSESSCVEEKPQEVQTSRNVENINVENPDFKAVGSSTADKNERTSVAETVRKCWPNRLAKEQISKRLEGNQYLFVPPNRYIFHGAEVYSDSEDDVLSSSSCGSNSDSGTCQSPSLEEPLEDESEIEEFYNGLEDDTERPECAGGSGFGADGGDQEVVNEAIATRQELTDVNYPSDKS
  mono-ADP-ribosylation activity relative to wild type (Phosphorimaging): 18% for R266A
